Values quoted from earlier work in article PMC5989558.

Target: CD80 (Homo sapiens) (UniProt P33681)
Chain of UniProt P33681 (P33681 35-242): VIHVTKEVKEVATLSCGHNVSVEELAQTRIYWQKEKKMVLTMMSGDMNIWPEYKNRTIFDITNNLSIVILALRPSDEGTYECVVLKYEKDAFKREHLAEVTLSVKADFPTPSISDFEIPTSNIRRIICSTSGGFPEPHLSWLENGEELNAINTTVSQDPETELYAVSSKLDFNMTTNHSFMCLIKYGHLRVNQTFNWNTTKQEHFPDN

Kd: 20 µM
Substance: CD28 (from UniProt P10747)
